In patent US20240270839A1 (ELPISCIENCE SUZHOU BIOPHARMA, published 2024):

How the values were obtained:
[1] = molecular target: T1, human CLDN18.2 (hCLDN18.2), expressed on cells (human); assay: FACS, MFC cells over-expressing hCLDN18.2; MFC cells; first panel, run beside the hu22E12 H1 and H2 variants
T1 construct: the constructs in the cell lines are not described; also called Claudin18.2; HEK293-hCLDN18.2

[2] = molecular target: T1, human CLDN18.2 (hCLDN18.2), expressed …; assay: FACS, HEK293/hCLDN18.2 cells; FACS, HEK293/hCLDN18.2 cells (stable over-expression)
[3] = molecular target: T1, human CLDN18.2 (hCLDN18.2), expressed …; assay: FACS, MFC cells over-expressing hCLDN18.2; MFC cells; second panel, run beside the hu22E12 H3 and H4 variants
[4] = molecular target: T1, human CLDN18.2 (hCLDN18.2), expressed …; assay: cell-based or functional assay
[5] = molecular target: T1, human CLDN18.2 (hCLDN18.2), expressed …; assay: cell-based or functional assay; remark: listed apart in the source
[6] = molecular target: T1, human CLDN18.2 (hCLDN18.2), expressed …; assay: FACS, SNU620 cells (endogenous CLDN18.2); FACS, SNU620 cells (native CLDN18.2)
[7] = molecular target: T1, human CLDN18.2 (hCLDN18.2), expressed …; assay: FACS, HEK293/hCLDN18.2 cells
[8] = molecular target: T1, human CLDN18.2 (hCLDN18.2), expressed …; assay: FACS, SNU620 cells (endogenous CLDN18.2)

B1: IMAB362 (Zolbetuximab) (antibody, human IgG1, kappa, V domains shown)
VH: QVQLQQPGAELVRPGASVKLSCKASGYTFTSYWINWVKQRPGQGLEWIGNIYPSDSYTNYNQKFKDKATLTVDKSSSTAYMQLSSPTSEDSAVYYCTRSWRGNSFDYWGQGTTLTVSS
VL: DIVMTQSPSSLTVTAGEKVTMSCKSSQSLLNSGNQKNYLTWYQQKPGQPPKLLIYWASTRESGVPDRFTGSGSGTDFTLTISSVQAEDLAVYYCQNDYSYPFTFGSGTKLEIKR
EC50 [1]: 23.5 nM
EC50 [2]: 0.71 nM
EC50 [3]: 42.7 nM
PBMC VS NUGC4 ADCC (EC50 nM) [4]: 25.1 nM
ADCC EC50 (nM), NK-CD16a effector cells [5]: 0.228 nM

B2: 60F11 (antibody, V domains shown)
VH: QVQLQQPGAELVKPGASVKLSCKASGYTFTSYWMHWVKQRPGQGLEWIGMIHPNSGSTNYNEKFKSKATLTVDKSSSTAYMQLSSLTSEDSAVYYCARMGLGNAMDYWGQGTSVTVSS
VL: DIVMTQSPSSLTVTAGEKVTLSCKSSQSLLNSGNQRNYLTWYQQKPGQPPKLLIYWASTRESGVPDRFTGSGSGTDFTLTISSVQAEDLAVYYCQNAYSYPLTFGAGTKLELK
notes: mouse hybridoma antibody, purified; also called clone 60F11
EC50 [2]: 0.81 nM
EC50 [6]: 3.5 nM

B3: 22E12 (antibody, V domains shown)
VH: QVQLQQPGTELVKTGTSVKLSCKASGYTFTNWVHWVIQRPGQGLEWIGEINPTNGRSNYNEKFKKKATLTLDRSSTTAYMQLSSLTSEDSAVYFCAGIYYGNSFAHWGQGTLVTVSA
VL: DIVMTQSPSSLTVTAGEKVTLSCKSSQSLLNSGNQKNYLTWYQQKPGQPPKLLIYWSSTRESGVPDRFTGSGSGTDFTLTISSVQAEDLAVYHCQNNYYYPLTFGAGTKLELK
notes: mouse hybridoma antibody, purified; also called clone 22E12
EC50 [7]: 0.86 nM
EC50 [8]: 2.1 nM

B4: 33G12 (antibody, V domains shown)
VH: EVKLVESGGGLVQPGGSLKLSCAASGFTFSRYAMSWVRQTPEKRLEWVAYISIGGTTYYPDTIKGRFTISRDNAKNTLYLQMSSLKSEDTAMYYCTRHYYGHDVMDYWGQGTSVTVSS
VL: QIVLSQSPTILSASPGEKVTMTCRATSSVSYMHWFQQKPGSSPKPWIYATSNLASGVPARFSGSGSGTSYSLTISRVEAEDAATYYCQQWSRNPLTFGAGTKLELK
notes: mouse hybridoma antibody, purified; also called clone 33G12
EC50 [7]: 0.56 nM
EC50 [8]: 1.1 nM
